Source: the supplement of paper PMC6757056
± gives the standard deviation of the averaged measurements.

B1: library; a variant is named by its letters at N, in order (parent)
chain: GCUGUCACCGAGAAACUGUGAAGUAUAUCUUAAACCUGGGCACUUAAAAGAUAUAUGGAGUUAGUAGUGCAACCUGCUCGGUCUGAUGAGUCCNNNNNNGGACGAAACAGC

Legend:
cyclic di-GMP [1] = variants of: B1; experiment: FACS-Seq fitted mean relative fluorescence mCherry/BFP without ligand (log10 relative fluorescence); HEK293T; ligand: cyclic di-GMP (c-di-GMP-II aptamer); higher = higher reporter protein expression; conditions: ligand present: no
Summary of the method: (§1)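 With or without ligand for 48 h, enriched HEK293T libraries carrying a lentiviral ribozyme-switch mCherry reporter and EF1α-BFP were sorted into 6 mCherry/BFP bins. Bin genomic DNA was amplified by PCR, barcoded and sequenced on MiSeq. Fluorescence was taken from normal fits to the resulting bin counts. Each fitted mean of log10(mCherry/BFP) was scaled to five spiked-in control ribozymes.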

cyclic di-GMP [2] = variants of: B1; experiment: normalized RNA/DNA level without ligand (relative to sTRSVctl = 100) (log10 (% of sTRSVctl)); HEK293T; ligand: cyclic di-GMP (c-di-GMP-II aptamer); higher = less ribozyme self-cleavage, higher mRNA level; conditions: reporter: mCherry (pCS4076), ligand present: no
Summary of the method: (§2)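 RNA level was computed as RNA reads over DNA reads divided by a spiked-in non-cleaving sequence or by the top sequences, then scaled and log-transformed. Scaling was ×100 with log10, the top group was 25 sequences, and the threshold was ≥100 DNA reads. The reads came from HEK293T cells transfected at 4 µg per 6-well well with ribozyme switch library plasmids (mCherry, or eGFP in some ligand experiments). Total RNA was extracted with EDTA 72 h after transfection, with any ligand added 1 h before it.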

cyclic di-GMP [3] = variants of: B1; experiment: FACS-Seq fitted mean relative fluorescence mCherry/BFP with ligand (log10 relative fluorescence); HEK293T; ligand: cyclic di-GMP (c-di-GMP-II aptamer); ligand concentration (+) FACS-Seq: 1 mM; higher = higher reporter protein expression; conditions: ligand present: yes
Summary of the method: as §1

cyclic di-GMP [4] = variants of: B1; experiment: normalized RNA/DNA level with ligand (relative to sTRSVctl = 100) (log10 (% of sTRSVctl)); HEK293T; ligand: cyclic di-GMP (c-di-GMP-II aptamer); ligand concentration (+) RNA-Seq: 1 mM; higher = less ribozyme self-cleavage, higher mRNA level; conditions: reporter: mCherry (pCS4076), ligand present: yes
Summary of the method: as §2

Variant | FACS-Seq fitted mean (log10) (cyclic di-GMP [1]) | normalized RNA/DNA level without ligand (log10) (cyclic di-GMP [2]) | FACS-Seq fitted mean (log10) (cyclic di-GMP [3]) | normalized RNA/DNA level with ligand (log10) (cyclic di-GMP [4])
GCUGUCACCGAGAAACUGUGAAGUAUAUCUUAAACCUGGGCACUUAAAAGAUAUAUGGAGUUAGUAGUGCAACCUGCUCGGUCUGAUGAGUCCAGGACAGGACGAAACAGC [AGGACA] | -0.264 ± 0.0046 | 1.48 ± 0.11 | -0.014 ± 0.086 | 1.63 ± 0.12
GCUGUCACCGAGAAACUGUGAAGUAUAUCUUAAACCUGGGCACUUAAAAGAUAUAUGGAGUUAGUAGUGCAACCUGCUCGGUCUGAUGAGUCCUGGACUGGACGAAACAGC [UGGACU] | -0.517 ± 0.12 | 1.69 ± 0.076 | -0.118 ± 0.075 | 1.86 ± 0.045
GCUGUCACCGAGAAACUGUGAAGUAUAUCUUAAACCUGGGCACUUAAAAGAUAUAUGGAGUUAGUAGUGCAACCUGCUCGGUCUGAUGAGUCCCGGACUGGACGAAACAGC [CGGACU] | -0.791 ± 0.13 | 1.48 ± 0.14 | -0.611 ± 0.11 | 1.64 ± 0.11
GCUGUCACCGAGAAACUGUGAAGUAUAUCUUAAACCUGGGCACUUAAAAGAUAUAUGGAGUUAGUAGUGCAACCUGCUCGGUCUGAUGAGUCCCGGACGGGACGAAACAGC [CGGACG] | -1.09 ± 0.056 | 1.77 ± 0.072 | -1.17 ± 0.31 | 1.87 ± 0.11
GCUGUCACCGAGAAACUGUGAAGUAUAUCUUAAACCUGGGCACUUAAAAGAUAUAUGGAGUUAGUAGUGCAACCUGCUCGGUCUGAUGAGUCCCGGACAGGACGAAACAGC [CGGACA] | -0.421 ± 0.083 | 1.4 ± 0.13 | -0.265 ± 0.047 | 1.58 ± 0.085
GCUGUCACCGAGAAACUGUGAAGUAUAUCUUAAACCUGGGCACUUAAAAGAUAUAUGGAGUUAGUAGUGCAACCUGCUCGGUCUGAUGAGUCCUGCUUUGGACGAAACAGC [UGCUUU] | 0.0721 ± 0.19 | 1.73 ± 0.025 | 0.309 ± 0.091 | 1.87 ± 0.11
GCUGUCACCGAGAAACUGUGAAGUAUAUCUUAAACCUGGGCACUUAAAAGAUAUAUGGAGUUAGUAGUGCAACCUGCUCGGUCUGAUGAGUCCUGGAAUGGACGAAACAGC [UGGAAU] | -0.121 ± 0.12 | 1.57 ± 0.041 | 0.272 ± 0.075 | 1.77 ± 0.13
GCUGUCACCGAGAAACUGUGAAGUAUAUCUUAAACCUGGGCACUUAAAAGAUAUAUGGAGUUAGUAGUGCAACCUGCUCGGUCUGAUGAGUCCUGGAACGGACGAAACAGC [UGGAAC] | -0.221 ± 0.031 | 1.64 ± 0.033 | 0.11 ± 0.0057 | 1.83 ± 0.075
GCUGUCACCGAGAAACUGUGAAGUAUAUCUUAAACCUGGGCACUUAAAAGAUAUAUGGAGUUAGUAGUGCAACCUGCUCGGUCUGAUGAGUCCCGGAAAGGACGAAACAGC [CGGAAA] | -0.619 ± 0.028 | 1.16 ± 0.075 | -0.44 ± 0.058 | 1.28 ± 0.09
GCUGUCACCGAGAAACUGUGAAGUAUAUCUUAAACCUGGGCACUUAAAAGAUAUAUGGAGUUAGUAGUGCAACCUGCUCGGUCUGAUGAGUCCCGGAAUGGACGAAACAGC [CGGAAU] | -0.644 ± 0.016 | 1.34 ± 0.11 | -0.366 ± 0.027 | 1.44 ± 0.13
GCUGUCACCGAGAAACUGUGAAGUAUAUCUUAAACCUGGGCACUUAAAAGAUAUAUGGAGUUAGUAGUGCAACCUGCUCGGUCUGAUGAGUCCAGGAAUGGACGAAACAGC [AGGAAU] | -0.199 ± 0.032 | 1.6 ± 0.042 | 0.123 ± 0.1 | 1.76 ± 0.1
GCUGUCACCGAGAAACUGUGAAGUAUAUCUUAAACCUGGGCACUUAAAAGAUAUAUGGAGUUAGUAGUGCAACCUGCUCGGUCUGAUGAGUCCAGGAAAGGACGAAACAGC [AGGAAA] | -0.514 ± 0.031 | 1.33 ± 0.15 | -0.185 ± 0.026 | 1.52 ± 0.1
GCUGUCACCGAGAAACUGUGAAGUAUAUCUUAAACCUGGGCACUUAAAAGAUAUAUGGAGUUAGUAGUGCAACCUGCUCGGUCUGAUGAGUCCAGGAAGGGACGAAACAGC [AGGAAG] | -0.88 ± 0.017 | 1.38 ± 0.13 | -0.6586 ± 0.0033 | 1.52 ± 0.13
